Experimental data as given in publication PMC7337497 (The Journal of Cell Biology, 2020).

Tests used:
[1] = target: T1, ATG12–ATG5-ATG16L1-GFP complex (E3-GFP) (human, UniProt O94817 1-140; Q9H1Y0 1-275; Q676U5-1 1-607, conjugated to a lysine residue in ATG5 (ATG12–ATG5 conjugate) | a lysine residue conjugated to ATG12); assay: microscopy-based bead protein-protein interaction assay; RFP-Trap beads coated with mCherry-WIPI2d, mCherry-Atg21 or mCherry as baits, 5 µM E3-GFP as prey; 25 mM Hepes pH 7.5, 150 mM NaCl, 1 mM DTT; at least 30 min at RT (22°C), confocal imaging; details: both partners purified
T1 construct: ATG12, human; synthetic gene codon optimised for Sf9; conjugated to ATG5 by coexpressed ATG7 and ATG10; ATG5, human; ATG16L1 isoform β, human; Dimer with two copies of each subunit by static light scattering; no TEV cleavage is described for this complex; also called GFP-tagged E3; E3 complex; source: Sf9, coexpressed from one poly-cistronic construct with ATG7 and ATG10, purified (StrepTactin, …)
T1 sequence (O94817 whole entry, chain 1 of 3, canonical isoform): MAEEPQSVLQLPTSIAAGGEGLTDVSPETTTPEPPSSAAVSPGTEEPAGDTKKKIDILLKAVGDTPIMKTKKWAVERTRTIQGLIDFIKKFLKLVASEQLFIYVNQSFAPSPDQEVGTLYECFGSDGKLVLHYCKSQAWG
T1 sequence (Q9H1Y0 whole entry, chain 2 of 3, canonical isoform): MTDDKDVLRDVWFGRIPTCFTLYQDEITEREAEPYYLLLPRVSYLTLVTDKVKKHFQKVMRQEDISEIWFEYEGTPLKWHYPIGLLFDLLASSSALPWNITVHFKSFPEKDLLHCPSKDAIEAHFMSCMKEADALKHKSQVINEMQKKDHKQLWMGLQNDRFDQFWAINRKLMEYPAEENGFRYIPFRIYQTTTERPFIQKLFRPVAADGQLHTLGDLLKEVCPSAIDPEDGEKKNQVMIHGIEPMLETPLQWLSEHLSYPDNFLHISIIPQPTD
T1 sequence (Q676U5 whole entry, chain 3 of 3, canonical isoform): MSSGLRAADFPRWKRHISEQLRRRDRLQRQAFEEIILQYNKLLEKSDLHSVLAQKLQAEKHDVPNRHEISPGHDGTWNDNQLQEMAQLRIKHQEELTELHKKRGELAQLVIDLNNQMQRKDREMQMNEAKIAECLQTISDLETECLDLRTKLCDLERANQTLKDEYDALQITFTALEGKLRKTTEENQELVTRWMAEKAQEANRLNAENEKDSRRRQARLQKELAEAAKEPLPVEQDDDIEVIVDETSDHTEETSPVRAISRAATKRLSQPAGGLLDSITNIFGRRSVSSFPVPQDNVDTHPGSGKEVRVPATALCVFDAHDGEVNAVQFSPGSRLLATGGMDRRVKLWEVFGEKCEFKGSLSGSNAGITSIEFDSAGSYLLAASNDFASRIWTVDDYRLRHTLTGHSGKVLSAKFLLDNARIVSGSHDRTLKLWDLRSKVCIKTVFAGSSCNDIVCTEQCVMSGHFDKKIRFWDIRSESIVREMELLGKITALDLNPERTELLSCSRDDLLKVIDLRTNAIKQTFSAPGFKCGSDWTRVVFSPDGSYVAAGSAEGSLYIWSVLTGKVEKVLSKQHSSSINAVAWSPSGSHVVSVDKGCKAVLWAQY

[2] = target: T1, ATG12–ATG5-ATG16L1-GFP complex (E3-GFP); assay: microscopy-based bead protein-protein interaction assay; 500 nM GST-mCherry-WIPI3 or GST-mCherry-WIPI4 and 100 nM E3-GFP with glutathione-coated polystyrene beads; 25 mM Hepes pH 7.5, 150 mM NaCl, 1 mM TCEP; 30 min RT, washed three times, confocal imaging; details: both partners purified

Sequence of GST-mCherry-WIPI3 (Q5MNZ6 whole entry, change not shown): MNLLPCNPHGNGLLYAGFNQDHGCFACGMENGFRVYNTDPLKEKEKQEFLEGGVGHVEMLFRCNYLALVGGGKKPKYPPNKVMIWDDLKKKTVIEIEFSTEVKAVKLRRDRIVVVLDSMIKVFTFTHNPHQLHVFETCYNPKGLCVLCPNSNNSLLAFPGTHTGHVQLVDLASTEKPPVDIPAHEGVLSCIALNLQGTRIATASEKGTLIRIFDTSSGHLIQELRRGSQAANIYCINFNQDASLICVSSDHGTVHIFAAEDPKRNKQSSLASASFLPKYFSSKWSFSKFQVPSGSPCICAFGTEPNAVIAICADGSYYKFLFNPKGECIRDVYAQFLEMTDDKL

binding result [1]	binding result [2]	Binder
binds	–	mCherry-Atg21 (natural protein, S. cerevisiae, UniProt Q02887 1-496, looked up, also called yeast Atg21; source: E. coli Rosetta pLysS, purified (Ni-NTA, TEV, Superdex 200); not shown: 6xHis, N-terminal, cleaved; mCherry, N-terminal, kept) MKVLQFNQDATCCVVAASSHQISIFNCDPFGKCFEIDTKNSKKKTSNNNGSASNSESRNNEESILITNGSRDRTDAEEEEDNEDNALVTGNILKEGEFVIEMLFSTSLIAIADRGQGLNKGKKLKIVNTKRKCTICEIVFPHEIVDVVMNRKRMCVLLESDQIFIYDISCMKPLETIDLWEDHYKRSQANSFSNASNTGTLEGDSANLNRVATNLLANATQKSVNGSNPSVRTRRNSLRSKIRPRMVLSNDDRSILCFTAYSSPKKNKPNSEALYDVVIYDTLNVTPVNYLNSVHKGNVACLAVSHDGKLLATASDKGTIIRVFHTGVDSDYMSSRSLFKEFRRGTRLCNLYQLAFDKSMTMIGCVGDTDTIHLFKLDDASNSLPGDNSSNGHWNEEEYILASNSNPSMGTPKEIPLSKPRIANYFSKKIKSSIPNQNLSRNFAYITVNESNRSCLGFPDEFPNQVYIASDDGTFSIYSIPSKPGECVLTKNNKFT
–	binds	GST-mCherry-WIPI3 (natural protein, WIPI3, human; synthetic gene; Construct GST-TEV-mCherry-WIPI3; held on glutathione beads in the assay; also called GST-mCherry–tagged WIPI3; source: HEK293 GnTi, transfected, purified; not shown: GST, N-terminal, kept; mCherry, N-terminal, kept) not shown
